Values joined by “and” are separate entries in the source; they are usually repeats but may differ in a detail not shown here. Identical values can stand only once.
B1: mAb 4F10 (IgG) (antibody, V domains shown)
VH: EVQLLESGPGLVKPSQTLSLTCTVSGGSISSGGYYWSWIRQHPGKGLEWIGYIYYSGSTYYNPSLKSRVAMSVDTSKNQFSLTLSSVTAADTAVYYCARAIDNFYDNSIWGQGTLVTVSS
VL: DIQMTQSPSSLSASVGDRVTIACRASQSITNFLNWYQQKPGKAPKLLIYAVSNLQSGVPSRFSGSGSGTDFTLTISSVRPEDFATYFCQQSYSPPYTFGQGTKVDIK
B2: mAb 14G5 (IgG) (antibody, V domains shown)
VH: QVQLVQSGAEVKKPGESLKISCKGSGYSFTSYWIGWVRQMPGKGLEWMGIIYPGDSDTRYSPSFQGQVTMSADRSISTAYLQWSSLKASDTAMYYCARSNVDGSTDYWGQGTLVTVSS
VL: SYELTQPPSVSVSPGQTARITCSGDALPKQYAFWYQQKPGQAPVLVIYKDSERPSGIPERFSGSSSGTTVTLTISGVQAEDEADYYCQSADSSDTYVPYVFGTGTKVTVL
B3: mAb 2E11 (IgG) (antibody, V domains shown)
VH: SVELIESGGGVVQPGRSLRLSCAASGFTFSNYAMHWVRQAPGKGLEWVAFISYDGSNKYYADSVKGRFTISRDNSKNTLSLQMNSLRAEDTALYYCARVFNGYEGDYWGQGTLVTVSS
VL: LPVLTQPPSVSVSPGQTARITCSGDALPKKYAYWYQQKSGQAPVLVIYEDSKRPSGIPERFSGSSSGTMATLTISGAQVEDEADYYCYSTDSSGNLYVFGTGTKVTVL
B4: mAb 3G2 (IgG) (antibody, V domains shown)
VH: EVQLLESGGGLIQPGGSLRLSCAASGLTVSNNYMNWVRQAPGKGLEWVSIIYSSGSTYYADSVKGRFTISRDTRKNTLYLQMHSLRVEDTAVYYCARERGWLDYWGQGTLVTVSS
VL: VIWMTQSPSSLSASVGDRVTITCRASQSVSSHLNWYQQKPGKAPKLLIYAVSSLQSGVPSRFSGGDSGTDFTLTIASLQPEDFATYYCQQTYTIPRTFGQGTKVEIK
B5: mAb 4B8 (IgG) (antibody, V domains shown)
VH: EVQLVESGGGLIQPGGSLRLSCAASGFTISSKYMSWVRQAPGKGLEWVSIIYSSGSTYYADSVKGRFTISRDISKNTLYLQMNSLRAEDTAVYYCASLGSGSAFGYWGQGTLVTVSS
VL: DIVMTQSPSSVSASVGDRVTITCRASQGISTWLAWYQQKPGKAPRLLIYAASSLQSGVPSRFSGSGSGTDFTLTISSLQPEDFATYYCQQANSFPFTFGPGTKVEIK
B6: Fab 4F10 (Fab, V domains shown)
VH: B1 VH
VL: B1 VL
B7: Fab 14G5 (Fab, V domains shown)
VH: B2 VH
VL: B2 VL
B8: Fab 2E11 (Fab, V domains shown)
VH: B3 VH
VL: B3 VL
B9: Fab 3G2 (Fab, V domains shown)
VH: B4 VH
VL: B4 VL
B10: Fab 4B8 (Fab, V domains shown)
VH: B5 VH
VL: B5 VL

What follows are molecules tested against recombinant ZIKV sNS1 (full-length ZIKV NS1, residues 3-352, GZ02 strain) (Zika virus (GZ02 strain)) (assay: negative staining EM).
In the case of “recombinant ZIKV sNS1 (full-length ZIKV NS1, residues 3-352, GZ02 strain) (natural protein)”, the stoichiometry N is reported as 4.

What follows are molecules tested against DENV2 NS1 (Dengue virus 2, strain ; …, UniProt P29990) (assay: ELISA).
DENV2 NS1, sequence (P29990 776-1127): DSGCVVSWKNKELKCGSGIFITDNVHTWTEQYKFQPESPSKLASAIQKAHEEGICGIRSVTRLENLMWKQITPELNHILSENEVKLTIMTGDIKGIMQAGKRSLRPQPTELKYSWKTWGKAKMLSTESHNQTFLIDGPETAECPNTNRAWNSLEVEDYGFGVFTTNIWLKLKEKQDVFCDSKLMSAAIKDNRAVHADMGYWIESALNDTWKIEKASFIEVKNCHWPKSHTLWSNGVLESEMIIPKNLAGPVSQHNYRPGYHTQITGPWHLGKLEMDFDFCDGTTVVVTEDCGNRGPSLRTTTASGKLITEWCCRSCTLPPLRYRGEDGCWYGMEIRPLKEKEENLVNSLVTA
B1: binds.

These molecules were tested against DENV4 NS1 (Dengue virus 4, strain ; …, UniProt P09866) (assay: ELISA).
DENV4 NS1, sequence (P09866 775-1126): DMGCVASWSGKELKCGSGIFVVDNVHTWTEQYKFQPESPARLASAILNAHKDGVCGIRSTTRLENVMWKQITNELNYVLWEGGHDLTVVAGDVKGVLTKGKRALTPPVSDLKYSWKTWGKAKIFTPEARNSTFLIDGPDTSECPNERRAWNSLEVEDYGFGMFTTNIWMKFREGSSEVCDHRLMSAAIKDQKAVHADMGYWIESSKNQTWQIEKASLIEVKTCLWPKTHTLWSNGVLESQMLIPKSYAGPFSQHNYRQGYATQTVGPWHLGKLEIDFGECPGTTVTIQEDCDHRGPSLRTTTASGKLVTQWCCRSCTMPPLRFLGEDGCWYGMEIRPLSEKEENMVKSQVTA
B1: binds.

The molecules below were run against ZIKV-derived sNS1 (Zika virus, strain ; stand-in …, UniProt A0A146CJG7) (assay: ELISA).
In the case of B1, the Kd is reported as 0.06 ± 0.01 nM.
For B2, the Kd was 0.15 ± 0.03 nM.
B3 gave a Kd of 0.22 ± 0.04 nM.
Molecule B4 has a Kd of 0.12 ± 0.02 nM.
Work on B5 yielded a Kd of 0.8 ± 0.33 nM.

These molecules were tested against cell-surface ZIKV NS1 (Zika virus, strain ; stand-in …, UniProt A0A146CJG7) (assay: flow cytometry on cells).
B1 was tested, and the “percentage of cell staining at 10 ug/ml” value was 58%.
With B2 the “percentage of cell staining at 10 ug/ml” value was 63%.
With B3 the “percentage of cell staining at 10 ug/ml” value was 59%.
For B4, the “percentage of cell staining at 10 ug/ml” value was 76%.
With B5 the “percentage of cell staining at 10 ug/ml” value was 70%.

What follows are molecules tested against recombinant ZIKV sNS1 (full-length ZIKV NS1, residues 3-352, GZ02 strain) (Zika virus, strain GZ02, UniProt A0A146CJG7, strain) (assay: cryo-EM structure).
B6 was tested, and the “stoichiometry N” value was 1 ratio Fab to NS1.
For B7, the “stoichiometry N” value was 1 ratio Fab to NS1.
For B8, the “stoichiometry N” value was 1 ratio Fab to NS1.
B9 was tested, and the “stoichiometry N” value was 1 ratio Fab to NS1 and 4 copies of Fab fragment for each NS1 tetramer.
With B10 the “stoichiometry N” value was 1 ratio Fab to NS1 and 4 copies of Fab fragment for each NS1 tetramer.

Reference: publication doi:10.1101/2023.10.16.562450 (bioRxiv, 2023)
